# US20140378382A1 (WISCONSIN ALUMNI RESEARCH FOUNDATION, published 2014)
# Like-named read-outs stand apart in the source and are kept apart here. Non-standard residues stand in square brackets, D forms with d. Primed or numbered codes have the meaning given here. No end group written: not given here. APC = aminopyrrolidine carboxylic acid (2-aminopyrrolidine-4-carboxylic acid); ACPC″ = 2-aminocyclopentane carboxylic acid (X); β3hW = N[C@H](CC(=O)O)Cc1c[nH]c2ccccc12; β3hE = N[C@@H](CCC(=O)O)CC(=O)O; β3hF = N[C@H](CC(=O)O)Cc1ccccc1; β3hK = NCCCC[C@H](N)CC(=O)O; β3hM = CSCC[C@H](N)CC(=O)O; β3hD = NC(CC(=O)O)CC(=O)O; β3hS = N[C@@H](CO)CC(=O)O; Aib = CC(C)(N)C(=O)O
# B1: B5 (peptide)
# peptide: SVSEIQLMHNLGKHLNSMERVEWLRKKLQDVQNF-NH2
# modifications: not fully specified (residues 20, 24, 28, 32); printed as SVSEIQLMHNLGKHLNSMERVEWLRKKLQDVQNF-NH2; also: five β3 residues, positions not given here in text
# notes: also called α/β-peptide B5
# B2: D7 (peptide)
# peptide: SVSEIQLMHNLGKWLNSMERVEWLRKKLQDVHNF-NH2
# modifications: not fully specified (residue 14); printed as SVSEIQLMHNLGKWLNSMERVEWLRKKLQDVHNF-NH2; also: seven β3 residues, positions not given here in text
# notes: also called α/β-peptide D7
# Legend:
# [1] = target: T1, human parathyroid hormone receptor 1, wild-type (hPTHR-1) (human, UniProt Q03431 27-593); assay: R0 binding, GP2.3 membranes (human PTHR-1); tracer not stated here
# T1 construct: whole, on cells; also called human PTHR-1; PTHR-1-WT
# T1 sequence (looked up): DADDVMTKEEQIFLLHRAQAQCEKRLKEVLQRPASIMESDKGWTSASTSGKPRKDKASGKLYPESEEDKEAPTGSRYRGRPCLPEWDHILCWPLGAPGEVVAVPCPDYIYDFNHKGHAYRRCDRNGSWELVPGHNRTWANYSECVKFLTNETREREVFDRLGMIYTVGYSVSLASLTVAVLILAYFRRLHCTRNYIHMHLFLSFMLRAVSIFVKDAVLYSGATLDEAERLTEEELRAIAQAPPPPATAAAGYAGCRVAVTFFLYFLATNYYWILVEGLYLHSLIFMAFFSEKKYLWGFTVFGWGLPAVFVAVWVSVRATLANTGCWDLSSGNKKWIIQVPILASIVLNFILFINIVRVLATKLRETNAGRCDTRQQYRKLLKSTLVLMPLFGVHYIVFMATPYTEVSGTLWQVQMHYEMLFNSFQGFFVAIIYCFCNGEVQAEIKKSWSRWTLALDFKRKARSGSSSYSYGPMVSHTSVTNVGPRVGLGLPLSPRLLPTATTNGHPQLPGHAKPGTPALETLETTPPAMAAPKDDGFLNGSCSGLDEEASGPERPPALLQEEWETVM
# [2] = target: T2, PTHR-1 (species and cells not stated for the assay) (Homo sapiens (Human), UniProt Q03431 27-593); assay: cell-based or functional assay
# T2 sequence: T1 sequence (looked up)
# [3] = target: T3, rat parathyroid hormone receptor 1, wild-type (rPTHR-1) (rat, UniProt P25961 27-591); assay: RG state; 125I-M-PTH(1-15) displacement; COS-7 membranes, rPTHR-1 + Gαs mutant
# T3 construct: whole, on cells; also called rat PTHR-1; rPTHR-1-WT
# T3 sequence (looked up): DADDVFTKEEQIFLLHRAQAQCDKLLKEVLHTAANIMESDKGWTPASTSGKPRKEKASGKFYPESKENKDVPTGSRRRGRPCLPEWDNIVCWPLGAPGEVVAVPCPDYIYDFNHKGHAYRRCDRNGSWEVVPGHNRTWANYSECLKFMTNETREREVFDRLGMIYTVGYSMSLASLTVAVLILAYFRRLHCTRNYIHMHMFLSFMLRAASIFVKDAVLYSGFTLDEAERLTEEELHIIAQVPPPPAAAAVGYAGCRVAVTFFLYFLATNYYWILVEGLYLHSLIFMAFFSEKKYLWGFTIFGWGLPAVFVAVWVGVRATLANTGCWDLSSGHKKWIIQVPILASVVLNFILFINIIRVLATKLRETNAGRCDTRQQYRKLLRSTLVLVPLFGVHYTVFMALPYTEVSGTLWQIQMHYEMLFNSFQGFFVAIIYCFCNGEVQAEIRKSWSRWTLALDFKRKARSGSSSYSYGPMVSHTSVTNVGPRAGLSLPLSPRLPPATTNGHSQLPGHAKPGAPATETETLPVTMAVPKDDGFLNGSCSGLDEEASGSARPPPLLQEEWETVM
# Description: (§1) Binding inhibition constants are expressed as the -log (IC50) and corresponding nanoMolar (nM) values. Values are means (±SEM) of the number of experiments shown (n), each performed in duplicate.
# [4] = target: T3, rat parathyroid hormone receptor 1, …; assay: cell-based or functional assay
# [5] = target: T1, human parathyroid hormone receptor 1, …; assay: RG state; 125I-M-PTH(1-15) displacement; COS-7 membranes, hPTHR-1 + Gαs mutant
# Description: (§2) ^aValues are means of n ≧4 experiments, each performed in duplicate.
# [6] = target: T1, human parathyroid hormone receptor 1, …; assay: cell-based or functional assay
# [7] = target: T1, human parathyroid hormone receptor 1, …; assay: RG state; 125I-M-PTH(1-15) displacement; COS-7 membranes, hPTHR-1 + Gαs mutant; remark: listed apart in the source
# Description: (§3) FIGS. 6A, 6B, 6C, 6D, 6E, and 6F constitute a series of graphs depicting binding of various analogs to the R⁰ and RG forms of human PTHR-1 (hPTHR-1). […] Data are means (±SEM) of n≧4 experiments, each performed in duplicate.
# [8] = target: T1, human parathyroid hormone receptor 1, …; assay: cell-based or functional assay; remark: listed apart in the source
# [9] = target: T3, rat parathyroid hormone receptor 1, …; assay: cell-based or functional assay; design: AUC-on / AUC-washout: unit not given beside the values
# [10] = target: T1, human parathyroid hormone receptor 1, …; assay: R0 state; 125I-PTH(1-34) displacement; COS-7 membranes, hPTHR-1, GTPγS
# Description: as §3
# [11] = target: T3, rat parathyroid hormone receptor 1, …; assay: R0 state; 125I-PTH(1-34) displacement; COS-7 membranes, rPTHR-1, GTPγS
# Description: as §1
# [12] = target: T3, rat parathyroid hormone receptor 1, …; assay: RG state; 125I-M-PTH(1-15) displacement; COS-7 membranes, rPTHR-1 + Gαs mutant; remark: listed apart in the source
# Description: as §1
# [13] = target: T1, human parathyroid hormone receptor 1, …; assay: R0 state; 125I-PTH(1-34) displacement; COS-7 membranes, hPTHR-1, GTPγS; remark: listed apart in the source
# Description: as §2
# [14] = target: T3, rat parathyroid hormone receptor 1, …; assay: R0 state; 125I-PTH(1-34) displacement; COS-7 membranes, rPTHR-1, GTPγS; remark: listed apart in the source
# Description: as §1
# [15] = target: T3, rat parathyroid hormone receptor 1, …; assay: cell-based or functional assay; remark: listed apart in the source
# [16] = target: T1, human parathyroid hormone receptor 1, …; assay: ratio of R0 IC50 to RG IC50, hPTHR-1
# [17] = target: T2, PTHR-1 (species and cells not stated …); assay: cell-based or functional assay; remark: listed apart in the source
# [18] = target: T3, rat parathyroid hormone receptor 1, …; assay: ratio of R0 IC50 to RG IC50, rPTHR-1
# Description: as §1
# [19] = target: T2, PTHR-1 (species and cells not stated …); assay: cell-based or functional assay; remark: listed apart in the source
IC50 [1] [nM],cAMP EC50 [2] [nM],-log (IC50) [3],IC50 [3] [nM],IC50 [5] [nM],cAMP EC50 [6] [nM],cAMP Max [6] [cps × 10^-3],cAMP pEC50 [6],-log (IC50) [7],IC50 [7] [nM],cAMP EC50 [8] [nM],cAMP Max [8],-log (IC50) [10],IC50 [10] [nM],IC50 [13] [nM],-log (IC50) [14],IC50 [14] [nM],cAMP EC50 [15] [nM],cAMP Max [15] [cps × 10-3],cAMP pEC50 [15],further results,Binder
1.54,0.21,–,–,–,–,–,–,–,–,–,–,–,–,–,–,–,–,–,–,–,"[β3hS]V[Aib]EIQ[ACPC″]MHNLGK[ACPC″]LNS[ACPC″]ERV[APC]WLR[APC]KLQ[ACPC″]VHN[ACPC″]-NH2 [FcycD6_β3Ser(1), Aib(3), ACPC (7)]"
–,–,8.37,4.2,0.086,0.11,212,9.97,10.1,0.086,0.11,0.98 relative to PTH(1-34),7.72,19,19,7.18,65,1.45,51,8.84,cAMP EC50 [4]: 1.45 nM; cAMP Max [4]: 0.78 relative to PTH(1-34); AUC-on [9]: 130000; AUC-washout [9]: 84000; IC50 [11]: 65 nM; IC50 [12]: 4.2 nM,B1
–,–,9.09,0.81,0.065,0.13,189,9.89,10.2,0.065,0.13,0.87 relative to PTH(1-34),8.69,2,2,8.22,6.1,0.33,50,9.48,cAMP EC50 [4]: 0.33 nM; cAMP Max [4]: 0.76 relative to PTH(1-34); Fold PTH(1-34) [6]: 0.76 fold; AUC Ratio [9]: 1.5; AUC-on [9]: 100000; AUC-washout [9]: 130000; IC50 [11]: 6.1 nM; IC50 [12]: 0.81 nM; R^0/RG [16]: 31 ratio; Fold PTH [17]: 2.1 fold; cAMP EC50 [17]: 0.17 nM; R^0/RG [18]: 8 ratio; Fold PTH(1-34) [15]: 0.79 fold; cAMP response PTH1R/PTH2R [19]: 33 ratio,SVSEIQLMHNLGK[β3hW]LNS[β3hM]ERV[β3hE]WLR[β3hK]KLQ[β3hD]VHN[β3hF]-NH2 (also called α/β-peptide D6) [D6]
–,–,8.69,2,0.24,0.39,184,9.41,9.63,0.24,0.39,0.85 relative to PTH(1-34),8.45,3.5,3.5,7.83,14.8,1.62,40,8.79,Fold PTH(1-34) [6]: 2.26 fold; R^0/RG [16]: 15 ratio; R^0/RG [18]: 7 ratio; Fold PTH(1-34) [15]: 3.89 fold,B2
89.4,0.79,–,–,–,–,–,–,–,–,–,–,–,–,–,–,–,–,–,–,–,"[β3hS]VSE[ACPC″]Q[ACPC″]MHNLGK[ACPC″]LNS[ACPC″]ERV[APC]WLR[APC]KLQ[ACPC″]VHN[ACPC″]-NH2 [FcycD6_β3Ser(1), ACPC(5,7)]"
